Test: soluble on expression in E. coli; label from the status in PepcDB or PDB records

Sequence | soluble on expression in E. coli
MSSNAQAIAGLEDRSAIPPTALKATLDHRLGEAAPSDYAKTLLASADAPTLRHLLGLGDAAVMDTGSGKNLDADLLDGYHGTYYLQWRNLQNTPQTYPPSAHQHASSDIPELASQLDTLVKKTGSLMTGSLQSQGTLIGDALGNGRIPALKIGNDCEFWDNNIPYAATFRSGTSPAIAQLFFGTSNHCYFGTSTKNTSTVIGAKTGLLWIETAGNYYYQQHDTTHVAFYKKNGGHAFFWRRSDSGGSGSTNEVQLMALEDNGNLSVKGTIVSAGGYAQGSSRKLKDIEGPLPYGLAEIEQLTPLIGRYKPSYTPDGRRRLFLEAEQLLDLMPETVNPEGIPFQGAYVPSVNLDQLLPVLVNAIAQLSAKVNALTDAPRHAEKLEHHHHHH | not soluble
MKKAKSRIAILGTGGTIAGFIDSTIATTGYAAGAIDIDVLIKAVPQIRDLADISWEQIANIDSSNMCDEIWLRLAKKIAKLFAEGIDGVVITHGTDTMEETAYFLNLTIKSDKPVVLVGAMRPSTAISADGPKNLYNAVALVVNKEAKNKGVMVAINDKILSARGVVKTHSLNVDAFSSPDFGDLGYIVDGKVFFYNNVIKAHTKNAPFDVSKLTSLPKVDILYSYSNDGSGVAAKALFEHGTKGIVVAGSGAGSIHKNQKDVLKELLKKGLKVVVSSRVVAGCVAVSDSDEKLGFISAEDLNPQKARVLLMLALTKTSDPKKIQEYFLKY | soluble
AVSFIGSTENDVGPSQGSYSSTHAMDNLPFVYNTGYNIGYQNANVWRISGGFCVGLDGKVDLPVVGSLDGQSIYGLTEEVGLLIWMGDTNYSRGTAMSGNSWENVFSGWCVGNYVSTQGLSVHVRPVILKRNSSAQYSVQKTSIGSIRMRPYNGSSAGSVQTTVNFSLNPFTLNDTVT | soluble
MGSDKIHHHHHHMKVFVTGATGFIGASIARELLKDGCHVRVLARPGSDRRNLDGLDVEVCEGDLCSPESLDRGVKGCEVLYHAAADYRLWTRNPAAMYAANVEGTRHVLDAALRHGVSRVVYTSSVGTLGNPGDGTPGTEATPVTFADMVGDYKKSKFLAEREAETFLARGLPLVIVNPSTPVGPHDVKPTPTGKIIVDFLNRAMPAYLDTGLNIIDVEDCAQGHILAAQHGRIGEKYILGHENLTLRQIFSLLETVTGLAAPKVRLPYLPILAAAYANEALSRITGREPLIPLAGVQMARKFMYFDSSKAVKELGLPQRPAVEALGRAVEWFRANGYVR | not soluble
SKSINVDQISIRSLSEPANPFSFWQWIFIYLPGLKEDEKQEILTHEQTHVRQWHSIDVIISEIVNIICWMNPFAWLLKTEIRLNLEYLADHKVMESGTNKKAYQYHLLGLA | not soluble
VLLLDVTPLSLGIETLGGVFTRLIPRNTTIPTKKSQIFSTAAAGQTSVEIRVFQGERELVRDNKLIGNFTLAGIPPAPKGVPQIEVTFDIDADGIINVSARDKATNKDSSITVAGSSGLSENEIEQMVNDAEKFKSQDEARKQAIETANKADQLANDTENSLKEFEGKVDKAEAQKVRDQITSLKELVARVQGGEEVNAEELKTKTEELQTSSMKLFEQLYKNDSNNNNNNNGNNAESGETKQ | soluble
GSHMASMTGGQQMGRGSMLPRLICINDYEQHAKSVLPKSIYDYYRSGANDEETLADNIAAFSRWKLYPRMLRNVAETDLSTSVLGQRVSMPICVGATAMQRMAHVDGELATVRACQSLGTGMMLSSWATSSIEEVAEAGPEALRWLQLYIYKDREVTKKLVRQAEKMGYKAIFVTVDTPYLGNRLDDVRNRFKLPPQLRMKNFETSTLSFSPEENFGDDSGLAAYVAKAIDPSISWEDIKWLRRLTSLPIVAKGILRGDDAREAVKHGLNGILVSNHGARQLDGVPATIDVLPEIVEAVEGKVEVFLDGGVRKGTDVLKALALGAKAVFVGRPIVWGLAFQGEKGVQDVLEILKEEFRLAMALSGCQNVKVIDKTLVRKNPLAVSKI | soluble
HDGIERELTIAVNNIIPGDLLVAFIRDFERQFTSTTLTVDLEVYNGCWDALYSKRADLVYGAPHAVPSSEGIISEPVGQMEWDFVVSPLHPLAAKRHPLENSELRHYPAVCIRDTSVNFPPMQAWLLEGQKPIFVPDFATAIALIE | not soluble
MTDKTSLSYKDAGVDIDAGNALVGRIKGVVKKTRRPEVMGGLGGFGALCALPQKYREPVLVSGTDGVGTKLRLAMDLKRHDTIGIDLVAMCVNDLVVQGAEPLFFLDYYATGKLDVDTASAVISGIAEGCLQSGCSLVGGETAEMPGMYHGEDYDVAGFCVGVVEKSEIIDGSKVSDGDVLIALGSSGPHSNGYSLVRKILEVSGCDPQTTELDGKPLADHLLAPTRIYVKSVLELIEKVDVHAIAHLTGGGFWENIPRVLPDNTQAVIDESSWQWPEVFNWLQTAGNVEHHEMYRTFNCGVGMIIALPAPEVDKALALLNANGENAWKIGIIKASDSEQRVVIE | soluble
MGSDKIHHHHHHTSCIEDEKDYSQIIETRVANCETSKDFSVPVKEGYTTFVTSGEDTLAMANEPITIRIPKNATISTRAEGDGINISYTILDEGSETTYAKVWQAIMFEDTQNGDYDYNDLIIHVKNTASNHAYQHPTETWQTIEIQPIALGSTKTIKLGCILSDGSTHMISDDVRTDLFGGRQGFINTVNDNDPIRYKLASTNIKNYAMPKKEKTSAAWVAWFIEVDGKRMYAASSDIDYKSYDMVNKENMPYGLAVSNGNGTFSYPQEKNSLFETYPGFSDWINGKVSSIGSFQKELVYKYCSGGIIGEDGKSHKIWDYLDLN | not soluble
MFNLRPAATLVALAAALSSLPALAEEARYNQISLRAEVNQEVQRDLMLVTLYTEAQDSDPARLAAQITETLNKALGQARQVKDVKIRQGSRNSYPVYDDKGQKITGWRERAELRLESADFAVLSKLTGELLTDLKMGGMDFSISPSTRKTSEDALLKDAVTAFKARAQLVTEALGGKGYKLVNLNLNTSGYPQPYLRAPVMMMAKSSRDESAPTPDVEAGTSQVSVAADGVIEVAIPLEHHHHHH | soluble
MAIYSFKMENISRGEGQSSVNSAAYRHRKVFFDNRTGEVCGRKTAHKKDLAFAQIFAPENTPSDLIVDSETLWNAVEASEKRKDARLAKEFKIALPAELTPEQSIELTKAFVLEHFTKQGIITDVVIHDINGHNPHIHIMGTTREVLSTGFGKKVREWDKPETLDSWRKGWQNICNEFLDLYGHDERIDHRSIRVQYKEALEQATAAATNEEKAIWLAKAIETNRDPILHIPRDRWGTLAAQEQRAAEQAIRDEQKKEAVEAYFTFKDLPLDIVVDVASFRVHALAEPEEIVIPDNTGKGSSTGSQKPVLVAPVPHTRTTLKTPSTSTARTLKRAPVKVKRKKVEPRQSGVFKRFTLLVVDYIREKFVWAKKKPVPVSVDAEHDERIAENYVFDEVQGIYVPRAEHERRARFNSDTYSPTPDEIRRFPRRPLKPDQANNTLDYIPTFSWDRKPSVLQLKPSGYRDKELEHHHHHH | not soluble
MGVLTTFISQKALVGGYDNTIEPGVVILSGATITCNVSIGQGTFINKSTVISHDVRIGRYCEVSPGAKVLGRAIIGDRTEIGANAVILPDVIVGADCKIGAGAVVTRNIDSHTTVAGVPARSITKSSNNAFKLKSKIRNLLYHIRIADFRKLREYNHYVFGLEHHHHHH | not soluble
MAHHHHHHMSLITTICRHPLASKRFMIVFRNEEGEELPEIFELRTRYEAIAPIAKGAYGFVCAATDNDLVENFHMSPPEEYNDPSLSKEERLDIYESHTTVAVKKLRQLFEQNRPRMWLCATREIQLMMAFKHENVMSALDFFIPLGDCERMTYESVEYLRHNFDSVYIVMKKMEYTLREVLESSVFTTTDTQDECGKLSNGKITSSAGTEKHDDGAHDDINKSTARRNERIARCPQTHLVLHPLARDYRMFILYQLLRGVGYMHLCLVIHRDIKPENIMLDRNYNTRVCDFGQGRDAVATELDGVLQTFLDNCTQWYAAPETLTLANVSSPSGFVDQKTLHAADVWSIGCIAAEMVIGRPLFYCRHSGGVGQLNAIMGVLGKIPEEAAERILQHRDEDTQKLFESVMRREMQQHLHKPSTLRRLLQSPYGDVDEEEIRLIERLLCYDPSQRITIQEALQSNYFINEGYEPVIDPDDTATHVRAVEAKEVVDAVRGRRFLWSLFLKHHPEVEELMRVLEIRRNSSSTDSTEVPPPACV | soluble
MSLDVSLKLKGIDGALEDNVKAYLSSIPEKDYSTSLRFQARLDQSITEALNALGYYHAKISYSISEGNDELIVNIHKGLPVKIKVMDVVISGEAKEDEEFTNLIAKSPLKVGRILNQGEYDSLKSGIRNLALQRGYFNGDFKLNKLEVIPELNEANVRLHYDSGIRYHFGPVEITGSQIWENRVESMRPFEIGEPYLVSDVGEYNQNLSNTDWFSSVFVEPDLSKLEDGRELPIKVSLAPAAKNQIETGIGYSTDTGVRGTLKWKKPWVSARGHSFNTALSLSKPEQTITAGYKIPLDDVLREYYQLQFGLKHLDNRDTESLESNLAVERHWLTDGGWHKTVYVRHLYENFSQGLQDDGVQFVLPGATFSRTRVRGGSMPMWGDKQSVTVEYGDPALLSETRVLRLLGRSSWIRGIGENHRGLFRLEGGANITEEFEKLSPSLRFFAGGDNNIRGYGYESISPVDESGALTGAKYILSSTLEYQYRVYGNWWAATFYDIGDAFNDTPEWKSGAGVGIRWASPVGPVSFDFAWGLDEKPNNEFRIHFSLGPELEGHHHHHH | not soluble
MLNNKRLFTSESVTEGHPDKIADQVSDAILDAILKDDPNARVACETTVTTGMALIAGEISTTTYVDIPKVVRETIKEIGYTRAKYGYDYETMAILTAIDEQSPDIAQGVDKALEYRDKDSEEEIEATGAGDQGLMFGYATNETETYMPLAIYLSHQLAKRLSDVRKDGTLNYLRPDGKVQVTVEYDENDNPVRIDTIVVSTQHAEDVTLEQIQEDIKAHVIYPTVPENLINEQTKFYINPTGRFVIGGPQGDAGLTGRKIIVDTYGGYARHGGGCFSGKDPTKVDRSAAYAARYVAKNIVAAGLADQCEVQLAYAIGVAEPVSIAIDTFGTGKVSEGQLVEAVRKHFDLRPAGIIKMLDLKQPIYKQTAAYGHFGRTDVLFPWEKLDKVEELKDAVK | not soluble
MVLTLDLADPAQPEHVFIVEDSRGATELKLYKSHYTIGKADSCDIRLHSIYASRQHATLVRFLTENGEVRYRLIDGDPETSRRSANGTYVNNRSITECDLKHYDQILFGALEHHHHHH | not soluble
STWTPRNRSEDEEEDENIDLEKNDDDEPNKPTDKGDSTDTEADHKLINPGEIPCDRFKDETHSKDLDPPLTDSELKEGEERTDLLAEQAKPTTSSPSVLQRGSDLITQEKPSEPGHAASTGNSNVTSVIHSPPSAPKPKLWSLAEIATSSDRCKGSSEASQAAGLSQSTVIASAASPTRSSPQCPLPNNTVLSRPIYYTSPFYPGYTNYSTFGHLHSSHGTNTSSTAHFNGLSQTVLNRAEALVRESKVRSQTQVDLCKDSPYELKKGMSNI | not soluble
MSLSSTSHERLEVEPIDESSILFADDDHYTSDTVCLVTGGGSGIGRATALAMAANGVTAVATDIDADGLAEVADTAADLDLDGAVETVAGDLANDADIEAIVETAASHGTVRYLANIAGLQHIDAIEDFPMEKYDQMHDVMLRAPLALSKRVIPHIRGTDDGVGAIGNMASVHGHYVTSDKVAYNVSKFGLRGLTQSIAAEGGDGLRGFSISTGYVKTPLVVDQIPDTAEQRGISVDEVIDDVMLGQARIKEMMDPIDVANLFVFGFSRHANHLNGGDLLFDGGMTKTYEGHHHHHH | not soluble
MKMDTGALTFQQKIYWLVKQIPLGRVATYGQIAALCGWPRHGRYVGYALYRVAPNSDIPWHRVVNAQGKISYAPQRRGTDELQRWRLAAEGIIFTAGDRINLRRYQWQPPATVYQQLIWPEGAATDSAKALEHHHHHH | soluble

Reference: the DeepSol protein solubility set
